Results on two molecules are retold here after patent US20210130491A1 (ONCOTAG DIAGNOSTICS, published 2021).

Assay [1] addresses T1, AIMP3 (aminoacyl tRNA synthetase complex-interacting multifunctional protein 3) (Homo sapiens (Human), UniProt O43324 1-174, limits assumed).
T1 construct: How the AIMP3-alone protein for SPR and screening was made is not described; also called p18
T1 sequence: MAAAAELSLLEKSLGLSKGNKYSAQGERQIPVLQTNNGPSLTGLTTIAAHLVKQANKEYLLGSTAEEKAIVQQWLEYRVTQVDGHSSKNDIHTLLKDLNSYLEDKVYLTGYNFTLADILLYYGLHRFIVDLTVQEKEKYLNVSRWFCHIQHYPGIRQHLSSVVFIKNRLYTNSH
The assay is described as follows: SPR, CM5 chip coated with AIMP3, antibody flowed at 0.20 to 200 nM. As to the method:
Surface plasmon resonance (SPR) experiments were carried out using 1E8 and 8A12 antibodies and MRS+AIMP3 protein obtained in Example 1.
CM5 chips were coated with MRS+AIMP3 or AIMP3 proteins and 1E8 or 8A12 antibodies were flowed at various concentrations to measure the degree of binding reaction with the proteins. Samples or buffers were injected for 8 minutes at a flow rate of 30 μl/min and washed for 20 minutes.
(In general: SPR reads the build-up and loss of mass on a sensor chip optically.)

The target in assay [2] is T2, MRS fragment 1 (1~266 aa).
T2 construct: Expressed in H460 cells from pcDNA3; also called lane 1
T2 single chain: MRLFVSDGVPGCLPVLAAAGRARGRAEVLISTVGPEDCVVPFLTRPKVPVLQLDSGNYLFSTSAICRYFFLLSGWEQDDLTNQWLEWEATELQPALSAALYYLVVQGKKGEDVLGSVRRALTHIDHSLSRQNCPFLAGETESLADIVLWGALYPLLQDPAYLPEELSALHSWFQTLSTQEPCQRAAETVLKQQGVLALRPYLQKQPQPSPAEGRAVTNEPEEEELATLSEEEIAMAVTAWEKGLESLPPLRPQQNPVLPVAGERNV
The assay is described as follows: western blot of lysates of H460 cells transfected with Myc-tagged MRS fragments. As to the method: (§1) Six fragments of different lengths and positions were prepared based on the GST, catalytic domain, and tRNA binging domains of the MRS protein, and MRS protein and each of the MRS fragments were cloned into pcDNA3 vector (EV). At this time, since Myc protein is linked to the N-terminus of MRS protein, Myc protein was used as a control.
(§2) Then, 2 μg of the cloned vector DNA were transfected into H460 cells using Turbofect (Thermo) according to the manufacturer's instructions. After 24 hours, cells were harvested and subjected to western blot. 1E8 antibody and 8A12 antibody were diluted 1:5000 (0.2 μg/mL) as the primary antibody.
A general note: In western blotting, separated proteins are transferred to a membrane and probed.

Assay [3] concerns the target T3, MRS fragment 2 (267~417 aa).
T3 construct: Expressed in H460 cells from pcDNA3; also called lane 2
T3 single chain: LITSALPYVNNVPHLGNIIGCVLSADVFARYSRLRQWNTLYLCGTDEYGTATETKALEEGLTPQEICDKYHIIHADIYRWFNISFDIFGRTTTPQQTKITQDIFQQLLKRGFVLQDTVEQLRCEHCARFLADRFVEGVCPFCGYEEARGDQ
The description is as above. How it is done:
as §1, §2

Assay [4] addresses T4, MRS fragment 3 (267~597 aa).
T4 construct: Expressed in H460 cells from pcDNA3; also called lane 3
T4 single chain: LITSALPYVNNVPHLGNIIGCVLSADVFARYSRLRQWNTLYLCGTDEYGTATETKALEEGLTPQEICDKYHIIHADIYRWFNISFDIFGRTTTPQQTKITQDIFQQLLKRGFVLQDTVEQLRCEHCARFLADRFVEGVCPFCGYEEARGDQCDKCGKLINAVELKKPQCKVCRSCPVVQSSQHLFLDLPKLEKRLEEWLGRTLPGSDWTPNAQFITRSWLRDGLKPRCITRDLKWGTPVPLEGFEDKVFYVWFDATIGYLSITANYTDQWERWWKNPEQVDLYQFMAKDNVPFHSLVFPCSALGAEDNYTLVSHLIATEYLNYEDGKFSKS
The assay is described as above. As to the method: as §1, §2

Assay [5] has as its target T5, MRS fragment 4 (1~597 aa).
T5 construct: Expressed in H460 cells from pcDNA3; also called lane 4
T5 single chain: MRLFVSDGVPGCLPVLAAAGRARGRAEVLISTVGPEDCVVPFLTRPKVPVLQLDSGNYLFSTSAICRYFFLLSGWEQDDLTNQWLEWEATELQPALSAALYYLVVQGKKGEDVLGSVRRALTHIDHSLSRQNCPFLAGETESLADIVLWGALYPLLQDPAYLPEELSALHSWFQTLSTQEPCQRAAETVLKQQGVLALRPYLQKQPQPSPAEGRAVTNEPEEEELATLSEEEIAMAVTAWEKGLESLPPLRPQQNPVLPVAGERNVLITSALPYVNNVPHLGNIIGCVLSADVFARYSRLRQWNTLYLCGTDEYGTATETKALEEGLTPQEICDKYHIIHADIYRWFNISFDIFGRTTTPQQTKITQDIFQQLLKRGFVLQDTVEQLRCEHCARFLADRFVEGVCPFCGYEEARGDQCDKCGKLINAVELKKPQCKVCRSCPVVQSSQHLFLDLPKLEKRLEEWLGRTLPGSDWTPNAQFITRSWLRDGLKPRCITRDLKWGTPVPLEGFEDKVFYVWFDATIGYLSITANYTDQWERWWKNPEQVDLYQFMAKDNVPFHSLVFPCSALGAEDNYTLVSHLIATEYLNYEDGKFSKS
The assay is described as above. As to the method: as §1, §2

B1: 8A12 antibody (8A12 IgG) (antibody, V domains shown)
VH: DVKLQESGPGLVKPSQSLSLTCTVTGYSITSEYAWTWIRQFPGNKLEWMGYINYNGNTNLNPSLKSRISIIRDTSKNQFFLQLNSVTTEDTATYYCARSLWPRGWFAYWGQGTLVTVSA
VL: DIQMTQSPSSMYASLGERVTITCKASQDINSYLSWFQQKPGKSPKTLMYRANRLVDGVPSRFSGSGSGQDYSLTISSLEYEDMGIYYCLQYDEFPRTFGGGTKLEIKA
notes: Mouse monoclonal from hybridoma clone 8A12; also called 8Al2; anti-MRS antibody (8A12)
On to B1, for which the binding result in assay [1] is reported as “no binding (tested: 200 nM)”; in assay [2] it was “no binding (tested: 0.2 µg/mL (1:5000, from paragraph 148))”; in assay [3], “no binding (tested: 0.2 µg/mL (1:5000, from paragraph 148))”; in assay [4] it was “no binding (tested: 0.2 µg/mL (1:5000, from paragraph 148))”; in assay [5], “no binding (tested: 0.2 µg/mL (1:5000, from paragraph 148))”.

B2: 1E8 antibody (1E8 IgG) (antibody, V domains shown)
VH: DVKLQESGPGLVNPSQSLSLTCTVTGYSITSDYAWNWIRQFPGNKLEWMGYISYSGRTSYKSSLKSRISITRDTSKNQFFLELNSVTTEDTATYYCARDYGNFVGYFDVWGAGTTVTVSS
VL: DIVMTQSPSSLAVSVGEKVTMSCKSSQSLLYSSNQKNYLAWYQQKPGQSPKLLIYWASTRESGVPDRFTGSGSGTEFTLTISSVKAEDLAVYYCQQYYSYPTFGGGTKLEIKA
notes: Mouse monoclonal from hybridoma clone 1E8; also called IE8; anti-MRS antibody (1E8)
As to B2, the binding result in assay [1] is reported as “no binding (tested: 200 nM)”; in assay [2], “no binding (tested: 0.2 µg/mL (1:5000, from paragraph 148))”; in assay [3], “no binding (tested: 0.2 µg/mL (1:5000, from paragraph 148))”; in assay [4] it was “no binding (tested: 0.2 µg/mL (1:5000, from paragraph 148))”; in assay [5], “no binding (tested: 0.2 µg/mL (1:5000, from paragraph 148))”.
